# Experimental data published in PMC10418163 (bioRxiv, 2024).
# What was measured:
# [1] = target: Pseudomonas aeruginosa PhuR, natively expressed (purified from E. coli outer membranes, heme-bound) (Pseudomonas aeruginosa PAO1, UniProt Q9HV88); experiment: ELISA
# [2] = target: Pseudomonas aeruginosa PhuR refolded from inclusion bodies (Pseudomonas aeruginosa PAO1, UniProt Q9HV88); experiment: SEC
binder,measurement,setting,value
"synthetic antibody sAB11 (Fab, V domains shown) VH: EVQLVESGGGLVQPGGSLRLSCAASGFNFYYYSIHWVRQAPGKGLEWVASISPYYGSTYYADSVKGRFTISADTSKNTAYLQMNSLRAEDTAVYYCARSMNWYYSSPYGMSQGMDYWGQGTLVTVSS VL: DIQMTQSPSSLSASVGDRVTITCRASQSVSSAVAWYQQKPGKAPKLLIYSASSLYSGVPSRFSGSRSGTDFTLTISSLQPEDFATYYCQQGSSSPLTFGQGTKVEIK",EC50,[1],~9 nM
same,binding result,[2],binds
